From publication PMC8885668, “A high-performance electrochemical aptasensor based on graphene-decorated rhodium nanoparticles to detect HER2-ECD oncomarker in liquid biopsy”

Target: HER2-ECD (recombinant human HER2/ErbB2/CD340) (human, UniProt P04626 23-652)
Experiment: electrochemical aptasensor (DPV); Rh-NPs/rGONs graphite electrode; linear 10-500 ng/mL; LOD 0.665 ng/mL (0.667 in abstract), not a Kd; DPV in 0.1 M PBS pH 7.4, 5.0 mM K4[Fe(CN)6]/K3[Fe(CN)6] (1:1), 0.1 M KCl; 50 nM aptamer immobilized; 40 min protein incubation; BSA-blocked; binding temperature not stated
Settings: protein: commercial; predicted double stem-loop; text also claims G-quadruplex

B1: anti-HER2 aptamer (ssDNA)
DNA: GGGCCGTCGAACACGAGCATGGTGCGTGGACCTAGGATGACCTGAGTACTGTCC
modifications: 5' NH2-(CH2)6, amide-coupled to MPA on electrode
B1: binds.
